Source: patent publication US9433687B2, “Anti-Notch3 antibodies and antibody-drug conjugates” (Pfizer Inc., priority 2012, dated 2016)

Experiments:
[1] = test system: HCC2429 or MDA-MB-468 cells; experiment: Co-localization with LAMP1, indirect immunofluorescence; format: cell-based, human; settings: 10 μg/ml; after incubation at 37° C. for 90 minutes
Experimental: HCC2429 or MDA-MB-468 cells were cultured in a Lab Tec II 4 chambered coverglass with cover #1.5 borosilicate sterile slides (Thermo Fisher Scientific Inc.). For binding and internalization assays, cells were washed twice with HBSS++ and unconjugated anti-Notch3 antibodies, hu75 and hu28, were added to the cells at a concentration 10 μg/ml in 2% bovine serum albumin (BSA)/HBSS++ for 25 minutes on ice. To visual membrane binding at time 0 minutes, control cells were washed with ice cold HBSS++ and then fixed in 4% paraformaldehyde in PBS for 10 minutes. For antibody internalization, cells were washed twice with ice cold HBSS++ and then pre-warmed complete growth media was added to the cells and placed inside a humidified 37° C., 5% CO2 incubator. Cells were removed from the incubator, washed and fixed as before at multiple time points from 5 minutes to 18 hours. Cells were then washed 3 times with PBS, and permeabilized for 10 minutes with 0.3% Triton X-100 in PBS. Cells were washed 3 times with PBS for 5 minutes each time and then blocked for 1 hour in 3% BSA/PBS. Anti-LAMP-1 mouse monoclonal antibody (H4A3, Abcam) was added at 1:100 in 2% BSA/PBS for overnight incubation at 4° C. Cells were washed twice with PBS for 5 minutes each and then secondary goat anti-human Alexa Fluor 488 and goat anti-mouse Alexa Fluor 555 (Life technologies) were added for 45 minutes in the dark. […]

[2] = test system: Site 2 (S2)-cleavage of the Notch3 receptor in HCC2429 and MDA-MB-468 cells; experiment: S2-cleavage assay (western blot, D11B8); format: cell-based, human; settings: 5 μg/ml, 24 hours; FIG. 9
Experimental: To confirm that binding of anti-Notch3 antibody hu75, but not hu28, to the NRR domain of Notch3 is accompanied by a decrease in S2-cleavage, western blot analysis was performed. The rabbit monoclonal anti-Notch3 antibody D11B8 (Cell Signaling Technologies) recognizes the Notch3 C-terminal fragments that are products of S1 and S2 proteolytic cleavage events. […] The anti-Notch3 antibody hu28 bound to LNR-C and HD1 domains that are located on a linear, covalently linked region of the NRR domain that is N-terminal to the S1-site. An inhibitory antibody is expected to decrease the detection of S2-cleaved Notch3 by stabilizing the NRR domain in an auto-inhibitory conformation thus preventing S2-cleavage, while a non-inhibitory antibody is not expected to have an effect on S2-cleavage.
Site 2 (S2)-cleavage of the Notch3 receptor was assessed by western blot analysis of the protein using the D11B8 (Cell Signaling Technologies) antibody which recognizes an epitope surrounding Glu2312 in the C-terminal domain. HCC2429 and MDA-MB-468 breast cancer cells were used to examine the effects of inhibitory anti-Notch3 antibody hu75 and non-inhibitory anti-Notch3 antibody hu28 on S2-cleavage. For the assay, 1-2.5×10^6 cells were plated in complete growth medium. […] Notch3 was detected with D11B8 antibody and, as a loading control, anti-GAPDH (Sigma) using standard western blot procedures.

MDA-MB-468 = target: T1, MDA-MB-468 (Homo sapiens, UniProt Q9UM47); experiment: Flow cytometry (FACS) binding, MDA-MB-468; settings: 4 μg/mL antibody
T1 construct: endogenous Notch3 expressing cell lines, HCC2429 and MDA-MB-468; endogenous in cells; host or cells: MDA-MB-468
Experimental: (§1) Unconjugated anti-Notch3 antibodies, hu28 and hu75, were examined for cell surface binding activity to Notch3 expressing cell lines by flow cytometry. Fluorescence activated cell sorting (FACS) analysis was conducted according to standard procedures. Cells were rinsed in HBSS with calcium chloride and magnesium chloride (herein termed HBSS++), harvested using trypsin without EDTA and neutralized with medium containing FBS. Cells were incubated on ice for 30 minutes with 4 μg/mL anti-Notch3 antibodies, hu28 and hu75, in HBSS++containing 3% HICS (heat-inactivated calf serum). Cells were washed three times with cold HBSS++, 3% HICS buffer. Cells were incubated in allophycocyanin-conjugated AffiniPure F(ab′)2 fragment goat anti-human IgG, Fc fragment secondary antibody (Jackson ImmunoResearch Laboratories, Inc., West Grove, Pa.) at 10 μg/mL for 30 minutes on ice in the dark. Cells were washed once with cold HBSS++/3% HICS buffer. Cells were resuspended in HBSS-++/3% HICS, 25 mM HEPES, 1 mM MgCl2 and 25 μg/ml DNaseI. 7-AAD (7-Amino-Actinomycin D) was added for exclusion of nonviable cells. Live cells were analyzed on a BD FACSCalibur flow cytometer (BD Biosciences, San Jose, Calif.). Mean fluorescence intensity (MFI) from channel FL-4 was calculated with FlowJo flow cytometry analysis software (Ashland, Oreg.).

MDA-MB-468/hNotch3 = target: T2, MDA-MB-468/hNotch3 (Homo sapiens, UniProt Q9UM47); experiment: Flow cytometry (FACS) binding, MDA-MB-468/hNotch3; settings: 4 μg/mL antibody
T2 construct: cell lines engineered to over-express full length human Notch3 protein: MDA-MB-468/hNotch3 and U2OS/hNotch3; expressed in transfected cells; host or cells: MDA-MB-468
Experimental: as §1

HCC2429 = target: T3, HCC2429 (Homo sapiens, UniProt Q9UM47); experiment: Flow cytometry (FACS) binding, HCC2429; settings: 4 μg/mL antibody
T3 construct: endogenous Notch3 expressing cell lines, HCC2429 and MDA-MB-468; endogenous in cells; host or cells: HCC2429
Experimental: as §1

T2 sequence (Q9UM47 40-2321): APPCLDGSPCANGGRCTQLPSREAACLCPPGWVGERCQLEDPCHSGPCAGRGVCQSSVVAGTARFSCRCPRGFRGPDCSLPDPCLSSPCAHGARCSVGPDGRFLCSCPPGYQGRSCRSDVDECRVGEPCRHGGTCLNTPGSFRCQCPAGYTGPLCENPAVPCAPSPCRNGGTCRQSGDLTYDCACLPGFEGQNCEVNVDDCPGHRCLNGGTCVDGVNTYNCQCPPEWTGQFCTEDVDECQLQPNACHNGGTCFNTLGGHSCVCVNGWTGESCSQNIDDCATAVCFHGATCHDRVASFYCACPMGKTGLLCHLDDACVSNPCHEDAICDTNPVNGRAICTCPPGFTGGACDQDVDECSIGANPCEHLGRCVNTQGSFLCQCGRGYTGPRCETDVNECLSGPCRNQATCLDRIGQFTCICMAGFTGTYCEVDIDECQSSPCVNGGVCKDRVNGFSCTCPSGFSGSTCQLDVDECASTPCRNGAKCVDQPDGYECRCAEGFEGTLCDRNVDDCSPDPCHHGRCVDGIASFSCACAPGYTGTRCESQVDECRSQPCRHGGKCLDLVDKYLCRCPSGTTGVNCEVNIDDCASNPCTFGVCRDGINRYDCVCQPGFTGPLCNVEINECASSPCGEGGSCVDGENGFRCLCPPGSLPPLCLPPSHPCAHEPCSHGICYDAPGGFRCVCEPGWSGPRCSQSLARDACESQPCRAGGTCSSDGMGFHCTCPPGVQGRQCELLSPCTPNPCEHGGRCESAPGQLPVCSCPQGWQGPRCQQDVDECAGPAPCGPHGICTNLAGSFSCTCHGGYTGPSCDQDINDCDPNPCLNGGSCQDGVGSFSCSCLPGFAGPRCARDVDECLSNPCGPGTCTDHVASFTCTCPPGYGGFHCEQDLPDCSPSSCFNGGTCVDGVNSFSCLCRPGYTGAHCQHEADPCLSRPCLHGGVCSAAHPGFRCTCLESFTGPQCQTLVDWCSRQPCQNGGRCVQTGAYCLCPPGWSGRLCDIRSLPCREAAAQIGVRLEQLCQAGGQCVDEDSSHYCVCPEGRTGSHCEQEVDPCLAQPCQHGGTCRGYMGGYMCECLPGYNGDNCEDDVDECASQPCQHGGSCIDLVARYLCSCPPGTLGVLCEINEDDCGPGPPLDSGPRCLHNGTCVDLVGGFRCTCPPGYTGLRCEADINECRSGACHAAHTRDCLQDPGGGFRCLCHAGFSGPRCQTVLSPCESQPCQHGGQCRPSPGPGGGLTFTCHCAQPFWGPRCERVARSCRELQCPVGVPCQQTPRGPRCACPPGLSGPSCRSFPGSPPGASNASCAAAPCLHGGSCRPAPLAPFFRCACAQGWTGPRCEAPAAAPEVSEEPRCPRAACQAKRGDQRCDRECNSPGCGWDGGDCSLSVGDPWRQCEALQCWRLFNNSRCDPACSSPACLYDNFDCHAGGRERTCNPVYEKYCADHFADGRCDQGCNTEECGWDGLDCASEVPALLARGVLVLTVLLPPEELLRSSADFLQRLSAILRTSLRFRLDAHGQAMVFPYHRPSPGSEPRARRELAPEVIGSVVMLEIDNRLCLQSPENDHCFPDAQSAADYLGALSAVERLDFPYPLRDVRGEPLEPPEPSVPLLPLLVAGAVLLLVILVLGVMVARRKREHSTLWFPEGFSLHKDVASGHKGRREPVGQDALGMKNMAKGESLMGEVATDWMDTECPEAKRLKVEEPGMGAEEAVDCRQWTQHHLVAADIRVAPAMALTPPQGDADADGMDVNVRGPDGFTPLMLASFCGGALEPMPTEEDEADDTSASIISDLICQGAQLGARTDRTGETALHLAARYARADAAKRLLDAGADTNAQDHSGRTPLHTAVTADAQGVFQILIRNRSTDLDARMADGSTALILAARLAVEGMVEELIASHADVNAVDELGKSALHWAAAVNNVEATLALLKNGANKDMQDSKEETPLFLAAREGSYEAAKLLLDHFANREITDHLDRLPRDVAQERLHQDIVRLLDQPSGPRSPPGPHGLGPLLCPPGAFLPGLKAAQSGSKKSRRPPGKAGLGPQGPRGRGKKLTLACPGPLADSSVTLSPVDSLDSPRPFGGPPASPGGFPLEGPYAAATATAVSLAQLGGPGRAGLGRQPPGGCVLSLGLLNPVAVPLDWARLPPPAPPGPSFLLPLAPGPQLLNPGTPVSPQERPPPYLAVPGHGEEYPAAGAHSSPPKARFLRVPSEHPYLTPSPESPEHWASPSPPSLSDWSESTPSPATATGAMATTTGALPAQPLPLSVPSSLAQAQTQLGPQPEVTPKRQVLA
T3 sequence (Q9UM47 40-2321): as above
T1 sequence (Q9UM47 40-2321): as above

MFI (MDA-MB-468): 557
MFI (MDA-MB-468/hNotch3): 1192
MFI (HCC2429): 564
B1: hu28 VH1.0/VL1.0: humanized r28 variant VH1.0/VL1.0, anti-Notch3 antibody (VH SEQ ID NO: 13, VL SEQ ID NO: 25) (antibody, V domains shown)
VH: EVQLVESGGGLVQPGGSLRLSCAASGFTFRDYGMTWVRQAPGKGLEWVAYISSGSNYIYYAEAVKGRFTISRDNAKNSLYLQMNSLRAEDTAVYYCARRGPFVLDAWGQGTLVTVSS
VL: DIQMTQSPSSLSASVGDRVTITCKASQSINRYLHWYQQKPGKAPKLLIYNANGLQTGVPSRFSGSGSGTDFTLTISSLQPEDFATYYCLQHNTWPDTFGGGTKVEIK
co-localization with LAMP1 after internalization [1]: co-localized with anti-LAMP1 antibodies
detection of S1- and S2-cleaved Notch3 C-terminal fragments [2]: both S1- and S2-cleaved Notch3 C-terminal fragments were detected
